From article PMC9811555 (Current protocols, 2022)

T1: VHH05-REPTOR-127D01 (VHH05 and 127D01 tags (human UBE2J1 and …, UniProt Q9Y385;P25025))
T1 chain 1: QADQEAKELARQIS
T1 chain 2: SFEDFWKGED

T2: H2B-mCherry-VHH05 (VHH05 tag, identical to a stretch of …, UniProt Q9Y385)
T2 chain: QADQEAKELARQIS

T3: H2B-mCherry-127D01 (127D01 tag, identical to a stretch of …, UniProt P25025)
T3 chain: SFEDFWKGED


Tests used:
VHH05-REPTOR-127D01 = molecular target: T1, VHH05-REPTOR-127D01; assay: immunostaining of cells or tissue
H2B-mCherry-VHH05 = molecular target: T2, H2B-mCherry-VHH05; assay: far-Western, overlay or dot blot
H2B-mCherry-127D01 = molecular target: T3, H2B-mCherry-127D01; assay: far-Western, overlay or dot blot

Row | binding result (VHH05-REPTOR-127D01) | binding result (H2B-mCherry-VHH05) | binding result (H2B-mCherry-127D01) | Binder
1 | binds | binds |  | NbVHH05-HA-His (VHH) VHH: QVQLQESGGGLVQPGGSLRLSCAASGFVFENSAMAWYRQAPGKERELIAVIGTTFIKLAESVKGRFTISRDNAKSTVYLQMNNLKPEDTAVYYCSKSGAYWGQGTQVTVSS
2 |  |  | binds | Nb127D01-HA-His (VHH) VHH: EVQLVESGGGLVQAGESLRLSCAASGSTFDFKVMGWYRQPPGKQREGVAAIRLSGNMHYAESVKGRFAISKANAKNTVYLQMNSLRPEDTAVYYCKVNIRGQDYWGQGTQVTVSS
3 | binds |  |  | Nb127D01-ALFA-His (VHH) VHH: EVQLVESGGGLVQAGESLRLSCAASGSTFDFKVMGWYRQPPGKQREGVAAIRLSGNMHYAESVKGRFAISKANAKNTVYLQMNSLRPEDTAVYYCKVNIRGQDYWGQGTQVTVSS
